# Experimental data: the DeepSol protein solubility set
# Test: soluble on expression in E. coli; label from the status in PepcDB or PDB records
row,Sequence,soluble on expression in E. coli
1,MTEEQFSSYHPPLPPTTEEDRFSWLRLLRSRRVGPTTFRRLMHEHGTAQNALAALPEVARAAGVEGYEICPPGVVEAELKAAKAAKARLLCLGDADYPSHLAGISDAPPLLWLLGDPALLRRPMIALVGARNASSLGTRMARALAQDLGTAGFVVVSGLARGIDTAAHLAALPSGTIAVMAGGVDTVYPAENTHLAADIAQHGLRLSEQPMRLTPQARHFPRRNRIISGLAQAVVVVEAAAKSGSLITARDALDQGREVLAVPGHPFDARAAGCNMLIRDGAHLVRNAEDVITALPALTAPQPQPDLCDLMQQPAPPAKRSLRETVALHSLILDRLGPSPVAEDQLIRDLAASPGEVAPVLVDLELEGRINRQAGGLLSRVN,not soluble
2,MVQHLSAQEIIQYISDAKKSTPLKVYVNGHFENVTFPESFKVFGSEHSKVIFCEANEWKQFYQQNHSLITELEIEMDRRNSAIPLKDL,not soluble
3,MAHHHHHHMSPLDACREQYEKDLANQTHCCMLEHVEEENRAANRKVFVRLLRYQQDINTRGTLPFEPDPTDAQKKSKGGNSAAPAYPENLTIRDPRQLKQILPIPDIHKVSDCDLIYRFLIARRMDVDLATNDILSYIGFREKYSLDTILWDREVEAVFNGLDGEELVQQVMGEMKKGATPAPKVKITRPLLQAGWAAWYCGVDKRGHVIFYQRPNPKELAMLEKRWPYIEGQYDCRNPEFHSVTPPYSNLLSRVYLREVEKGRRISRLLNYNQQYIIREGLHVQTTVKPTSTDTFMDNGGGATCLVDVGSIKLSHLTSSKCKKAFKLFRVLSLTGQSFYPENMSRMIIINGGFVFNMLFKLVRPWLDPQTQKKIVLLSATNRATLDELSSDSNLMSQSHETNDSEESDDDGTPVVGTDSERAKYALRDALAEYIHEDFIPSWYGGRLPVVDSPLFYGASPPKSLAENPQFAAACERLRARVVPQLLPDAFIFANAKEREGVGQEEWEAFCSMTERTLFRKQASTQCSSHS,not soluble
4,MGSDKIHHHHHHMEEKKALIIVDVQKAFDDKKWGERNNVKAEENISKILELWREKGWTVIYIQHTSDKPHSLFHPKNEGFAIKEIVKPMDEEVIITKTVNSSFIGTNLEEFLKLNEITTVVITGLTTPHCVSTTTRMSGNLGFDTYLISDATAAFGMRDQNDTYYDAATIHNISLATLHDEFATILTTDQLINDFIKTH,not soluble
5,MGHHHHHHHHHHSSGHIEGRHMGKNVLLLGSGFVAQPVIDTLAANDDINVTVACRTLANAQALAKPSGSKAISLDVTDDSALDKVLADNDVVISLIPYTFHPNVVKSAIRTKTDVVTSSYISPALRELEPEIVKAGITVMNEIGLDPGIDHLYAVKTIDEVHRAGGKLKSFLSYCGGLPAPEDSDNPLGYKFSWSSRGVLLALRNSAKYWKDGKIETVSSEDLMATAKPYFIYPGYAFVCYPNRDSTLFKDLYHIPEAETVIRGTLRYQGFPEFVKALVDMGMLKDDANEIFSKPIAWNEALKQYLGAKSTSKEDLIASIDSKATWKDDEDRERILSGFAWLGLFSDAKITPRGNALDTLCARLEELMQYEDNERDMVVLQHKFGIEWADGTTETRTSTLVDYGKVGGYSSMAATVGYPVAIATKFVLDGTIKGPGLLAPYSPEINDPIMKELKDKYGIYLKEKTVA,soluble
6,MTNTSFDNSTIVVGVAGGIAAYKSCHVVRGFKEDGANVVVVPTSAALNFVGKATFEALSGNPVSTTVFDAVDEVRHVNVGQHADLIVVAPATADLIARVAMGRADDLLTATLLVATCPIVLVPAMHAEMWSNAATRENVATLRRRGIIVMDPAHGRLTGADTGPGRLPDSDQIIDFAKTVARTKVMPRDLVGKKVL,not soluble
7,MNEFEDLLNSVSQVETGDVVSAEVLTVDATQANVAISGTGVEGVLTLRELTNDRDADINDFVKVGEVLDVLVLRQVVGKDTDTVTYLVSKKRLEARKAWDKLVGREEEVVTVKGTRAVKGGLSVEFEGVRGFIPASMLDTRFVRNAERFVGQEFDTKIKEVNAKENRFILSRREVVEAATAAARAEVFGKLAVGDVVTGKVARITSFGAFVDLGGVDGLVHLTELSHERNVSPKSVVTVGEEIEVKILDLNEEEGRVSLSLKATVPGPWDGVEQKLAKGDVVEGTVKRLTDFGAFVEVLPGIDGLVHVSQISHKRIENPKEALKVGQEVQVKVLEVNADAERVSLSIKALEERPAQEEGQKEEKRAARPRRPRRQEKRDFELPETQTGFSMADLFGDIELLEHHHHHH,soluble
8,MDIGLEVENIPSVNITSLKEAPIHISSKIQPHGILLVLAEPDLKILQVTNNTLNVFGRSAEDMVQKRLVDLLDAYQLDRIKSGLSEQNLEFINPTKILVRNKGIA,not soluble
9,MKQLSSFDIKACVRELKELEGGKVEKVYHHPPDEIRIRIYAGRKVDLVIEAGRRIHLTKFPKQAPRFPSAFAMLLRKHLEGARIKKIEQYDFDRVVVIEFERFGEIRRIVAELFSKGNVVLLNEENRVIMPLKHTIKVGELYRFPEQRERKDEDREVVRVLAMSGLGGLYAEEVCLRAGIDKKKKYAELSEDERKKIDEEIERLMNFTPKPQIILKDGDYLDVVPMDLLYYSNYEKKYFESFNDALDDYFSKKLAEMDELESMKSEELEKLKKRLEIQKESLRKFEDEAESFRKIGDAIYENYQMVEKIIEAFRAARERKSWDEIKEIVARDEKLKKLVKAIKPEKNAIVVKVGDFDVELEIKKSIHENADLYYEKAKKAREKAEGVKRAIEATLREMERVEEKLEKKLVTSIKVRRKKEWYE,not soluble
10,ATGPRYKVPMRRRREARTDYHQRLRLLKSGKPRLVARKSNKHVRAQLVTLGPNGDDTLASAHSSDLAEYGWEAPTGNMPSAYLTGLLAGLRAQEAGVEEAVLDIGLNSPTPGSKVFAIQEGAIDAGLDIPHNDDVLADWQRTRGAHIAEYDEQLEEPLYSGDFDAADLPEHFDELRETLLDGDIEL,soluble
11,MGGIPDITPYPLTYSLGGVIPLSSVLEMLWVEKYRPRSLDDIVDQKHVVERLKQFVKQRNMPHLLFAGPPGTGKTTAAHALAHDLFGENYRQYMLELNASDERGINVIREKVKEFARSRTPPEIPFKIVLLDEADNMTSDAQQALRRLMELYSSVTRFILIANYPSKIIDPIQSRCAFFRFQPLSKQDVIERLRYIAENEGVDYEEEALDAIYEISEGDMRKAINVLQAASYLGKVTVDAVYRVVGMAKPREVREMLATALKGDFTAARSLLRKIMIEYGMSGEDVARQIHRELFSTELKMPEELRVLAADYLGEVHYRLVEGSDDDIQLSAFLAWLTMMSRKLEV,soluble
12,MGSDKIHHHHHHMATQRGTTAPPQTGSEQTGSVAGAGNARASLGVDGAVRLATSSVTTQSYAREFARLFNVDTAHTLTTTSLKTAQLTATHMCSSVHGLGKSTPLPTEDAYILSLQLQHSGGAELWKRGRRVPTEPYAPGSIMLGHLSDEPVANLPDPFECILFHIPRPAFDELCGLSALPPVGELDDVNRTIDPVLHHLGLALVPAMADPQLAGSLFFDHVAHAMYERLATTYGRFRGTLPPRGRVLSKTQERIAKELLVADLLVEPPLSDIALACGLSVRQFVDAFRSTTGMPPFRWLRAYRIERAKELLRRTSFSLAEIGAACGFADQSHFTRTFSAATGTTPGDWRRACGA,not soluble
13,MGSDKIHHHHHHMKLQDFLGKDEKWSFDAIAEDADLARQIQIVLIGLVLLEPPADGKFGPVSVIALKKFQELTKTEESGFLGAVTAKKLIETKIDDLPKPPLKLGNDIASKIVKYMIAKGYQVFTNPKEYNIVYIEGMNGDWTLNSDTPNQFNDRRIVIEVVNGIPKIVDHWEATTEPGKYYTYNPMNPKGAARIQFGQYKAWAVGTHGTAEPHEALVQVGDITVCRDFNQDFKRTGDKLDTGDNFYVNQHYGFDFPQNDIRLASAGCLVGRTREGHREFMAIVKQDRRYVANRKYTFYTTVIPGDDLLKTFPG,not soluble
14,MQMKRTAFFISDGTGITAETLGQSLLAQFENISFVKLTRPYIDTEEKARAMVQQINNAAESDGARPIIFDTIVNRDIRAVLAQSNGFMIDIFATFLSPLEQELSADSSYSVGKSHSIGHNSNYMDRIEAVNFALDNDDGARTHYYDKADLILVGVSRCGKTPTCLYMALQYGIRAANYPLTEEDMERLQLPNALKQYKHKLFGLTIDPDRLTAIRNERKPNSRYASFAQCEFEVREVESLFRRENIAYINSTHFSVEEISAKILVEKGVERRFKLEHHHHHH,not soluble
15,GDSQDFSSSQSTSPVVHHRPIDQIALSTFEDTTPLKTDEVEQAWEHTQITYVDLRTGAHLGSGAERLARASLSLSKLYIADYVFDHGTQKEKEQAVEMIRKSDDDIADKLFDAYPNCIDSVAKKYQLEATQTYGRWG,not soluble
16,MVQWSPFVMSFKKKYPWIQLAGHAGSFKAAANGRILKKHCESEQRCLDRLMADVLRPFVPAYHGDVVKDGERYNQMDDLLADFDSPCVMDCKMGVRTYLEEELTKARKKPSLRKDMYQKMVEVDPEAPTEEEKAQRAVTKPRYMQWRETISSTATLGFRIEGIKKEDGSVNRDFKKTKTREQVTEAFREFTKGNQNILIAYRDRLKAIRATLEISPFFKCHEVIGSSLLFIHDKKEQAKVWMIDFGKTTPLPEGQTLQHDVPWQEGNREDGYLSGLDNLIDILTEMSQG,soluble
17,MSAFKKSLLVAGVAMILSNNVFADEGHGIVKFKGEVISAPCSIKPGDEDLTVNLGEVADTVLKSDQKSLAEPFTIHLQDCMLSQGGTTYSKAKVTFTTANTMTGQSDLLKNTKETEIGGATGVGVRILDSQSGEVTLGTPVVITFNNTNSYQELNFKARMESPSKDATPGNVYAQADYKIAYE,soluble
18,MNDSAPRRVRVRAPELIGKGGWLNTGDKQYTLADLRGRIVVLDFWTFCCINCLHVLDELRELEEKHRDTVVIIGVHSPKFVHEAEHQAVVDAVERYGVEHPVLDDPELATWKQYAVRAWPTLVVIDPEGYVVAQHAGEGHAHAIAALVAELEAEHEAKGTLRRGDGPYVAPEPEPTVLRFPGKALLLPSGNFLVSDTTRHQLVELAADGESVVRRIGSGIRGFADGPADAASFSEPQGMTLLDEDVVVVADTVNHALRRLDLATGEVTTLAGTGRQWWQGSPASGPAREVDLSSPWDVAVFGGRVWIAMAGGAPAVDVRPGGGDGRGRGGHDERGAGRRTGLEHHHHHH,soluble
19,MNRLPNIAKPPQKSNQRKEKAPPEVPALIADKDRGTYYEKGRFLGKGGFAHCYELTNRATREVVAGKVVPKSMLVKQYQRDKMTQEVQIHRELGHINIVKLFNFFEDNLNVYITLELCARRSLMELHKRRKAVTEPEARYFTHQIVDGVLYLHDLNIIHRDMKLGNLFLNDDLVVKIGDFGLATTVNGDERKKTLCGTPNYIAPEVLNKAGHSFEVDIWAVGCILYILLFGQPPFESKSLEETYSRIRHNNYTIPSIATQPAASLIRKMLDPEPTRRPTAKQVQRDGFFKSGFMPTRLPVSCLTMVPKFGGHETSMMEENVAPRGVDARSQRPLNGRAGLSALPQHIVSNNADRERAQQQAAEATFREPEDAYLSQLFHQVAVLLEQRIPGLEEEEAALDGYQSPECLPVFWISKWVDYSDKYGIGYQLCDNSVGVLFNDNSRIMLDQAGNELTYIEKSNKEHYFSMHSGEMPGLLNKKVTLLKYFRSYMNDHLVKAGEGSEQRAGDDLARLPTLRVWFRTKSAIVLHLSNGTVQINFFNDHVKMMMCPLMQAVTFIDQNKRMLTYKLNNLQRNGCPEKFLHRLKYAKTMIERLMSDANVVSQNPARQPDMPRSMAAARSASAGSRGPNQAASHLPQSASGSNIHPRR,not soluble
